Results: the nanobody polyreactivity screen of Harvey et al. (2022)

Test: yeast display, Sf9 membrane polyspecificity reagent, FACS + sequencing; frameworks hold sequencing errors
How it was run: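 Polyreactivity labels are assigned by the sorting gate from which each nanobody was recovered. The gates were low and high (top ~1%), set on anti-HA fluorescence for expression and streptavidin fluorescence for reagent binding. Before sorting, galactose-induced (36–48 hours) yeast display cells were stained for 1 hour at 4 °C with 10% biotinylated, detergent-solubilized Sf9 membrane reagent.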

Sequence	polyreactivity (PSR sort gate)
QVQLVESGGGLVQAGGSLRLSCAASGFIFGYYAMGWYRQAPGKERELVAAITSGGSTYYADSVKGRFTISRDNAKNTVYLQMNSLKPEDTAVYYCAAGWWYYLHMDYWGQGTQVTVSS	high polyreactivity
QVQLVESGGGLVQAGGSLRLSCAASGYIFTGNAMGWYRQAPGKERELVAAIDSGGSTYADSVKGRFTISRDNAKNTVYLQMNSLKPEDTAVYYCNADQNEDTYLSYYGDYDYWGQGTQVTVTS	low polyreactivity
QVLLQESGGGLVQAGGSLRLGCAASGTISPAYYMGRYHQAPGQEREFVAAITYGTNTYYADSVKGRFTISRDNAKNTVYLQMNSLKPEDTAVYYCSATAGYNGAHDYWGQGTQVTVSS	low polyreactivity
QVQLVESGGGLVQAGGSLRLSCAASGRIFFYNTMGWYRQAPGKERELVATISWSGASTYYADSVKGRFTISRDNAKNTVYLQMNSLKPEDTAVDYCAAVTRYTGFDYWGQGTQVTVSS	high polyreactivity
QVQHVETGGGLVQAGGSLRLSCDASGRIFYNYVMGWYRQAPGKERELVAAISFSSGNTYYADSVKGRFTISRDNAKNSVYLQMNSLTPEDTAVYYCNADIYTWFQIGGYQYDYWGQGTQVTVSS	low polyreactivity
QVQLVESGGGLVQAGGSLRLSCAASGSTFNKNAMGWYRQAPGNERELVAVISRSGGSTHYADSVKGRFTISRDNAKNTVYLQMNSLKPEDTAVYYCATPFSYRRRTSASPYLYDYWGQGTQVTVSS	high polyreactivity
QVQLVESGGGLVQAGGSLRLSCAASGSIFLQNAMGWYRQAPGKERELVAAITNGGSTNYADSVKGRFTISRDNAKNTVYLQMNSLKPEDSAVYYCAAYPLYTGSYDRGGYWGQGTQVTVSS	low polyreactivity
QVQLVESGGGLVQAGGSLRLSSAASGFILGYNTMGWYRQAPGKESELVAAINLSGASTYYADSVKGRFTISRDNAKNTVYLQMNSLKPEDTAVYYCGVRFYSGPGGYPTTRYYYWGQGTQVTVSS	high polyreactivity
QVQLVESGAGLVQAGGSLRLSCAASGSIFVYYTMGCYRQAPGKEREFVAAISFSGGSTYADSVKGRFTISRDNAKNTVYLQMNSLKPEDTAVYYCNADRWLYTPSKFVEMDFWGQGTQVTVSS	low polyreactivity
QVQLVESGGGLVQAGGSLRLSCAASGSTFLPYAMGWYRQAPGKERELVAAIDWNGGRTYYADSVKGRFTISRDNAKNTVYLQMNSLKPEDTAVYYCAKLGRAAQGNYYWGQGTQVTVSS	high polyreactivity
QVQLVESGGGLVQAGGSLRLSCAASGSIFASYAMGWYRQAPGKERELVAAITYSGSRTYYADSVKGRFTISRDTAKNTVYLQMNSLKPEDTAVYYCNADYYWYPYEDDYWGQGTQETVSS	low polyreactivity
QVQLVESGGGLVQAGGSLRLSCAASGITYPGYAMGWYRQAPGKERELVAVIRKSGTSTYYADSVKGRFTISRDNAKNTVYLQMNSLKPEDTAVYYCAAGGPSTLDDYWGQGTQVTVSS	low polyreactivity
QVQLVESGGGLVQAGGSLRLSCAASGYIFTYYAMGWYRQAPGKERELVAAISTSGTSTYYADSVKGRFTISRDNAKNTVYLQMNSLKPEDTAVYYCAKRSGARHRLMDYWGQGTQVTVSS	low polyreactivity
QVQLVESGGGLVQAGGSLRLSCAASGSIFRWYAMGWYRQAPGKERELVAAISYSGGSTYYADSVKGRFTISRDNAKNTVYLQMNSLKPEDTAVYYCARLGWKPITAARDYWGQVTQVTVSS	high polyreactivity
QVQLVESGGGLVQAGGSLRLSFAASGFTFQWYGMGWSRQAPGKERELVAAINYSGGSTYYADSVKGSFTLSRDNAKNTVYLQMNSLKPEDTAVYYCAAEFYSWPWLRLAPWSMDYWGQGTQVTVSS	high polyreactivity
QVQLVESGGGLVQAGGSLRLSCAASGLTIAAYAMGWYRQAPGKERELVAAITQRGGSTYYADSVKGRFTISRDNAKNTVYLQMNSLKPEDTAVYYCAADSTWWWWKLYSPYGYDYWGQGTQVTVSS	low polyreactivity
QVQLVESGGGLVQAGGSLRLSCAASGRTFPYNAMGWYRQAPGKERELVAAISYSGGRTYYADSVKGRFTISRDNAKNTVYLQMNSLKPEDTAVYYCNALGSGREDDYWGQGTQVTVSS	high polyreactivity
QVQLVESGGGLVQAGGSLRLSCAASGIIFGFNAMGWYRQAPGKETELVAAINGDDSTYYADSVKGRFTISRDNAKNTVYLQMNSLKPEDTAVYYCAARYYRYLTFTGELLVYYWGQGTQVTVSS	low polyreactivity
QVQLVESGGGLVQAGGSLRLSCAASVSIFVRNAMGWYRPAPGKERELGAADSVKGRFTISRDNAKNTVYLQMNSLKPEDTAVYYCAADEWIVHDGYYSSYYYWGQGTQVTVSS	low polyreactivity
QVHLVASGGGLVQAGGSLRLSCAASGRSFYEYAMGRYRQEPGKERELVAGITSGGSTNYADSVKGRFTISRDNAKNTVYLQMTSLKPEDTAVYYCADSYWGYEYDYWGQGTQVTVSS	low polyreactivity
QVQLVESGGGLVQAGGSLRLSCAASGSTLVTYAMGWYRQAPGKERELVARIDSGGSTNYADSVKGRFTISRDNAKNTVYLQMNSLKPEDTAVYYCSAGGGFYFIWTMDYWGQGTQVTVSS	low polyreactivity
QVQLVESGGGLVQAGGSLRLSCAASGSTFSPNVMGWYRQAPGKERELVAAISSSTGSTNYADSVKGRFTISRDNAKNTVYLQMNSLKPEDTAVYYCAVDPYVHWTTKLYDYWGQGTQVTVSS	low polyreactivity

Sequence	polyreactivity (PSR sort gate)
QVQLVESGGGLVQAGGSLRLICAASGLTFGSNGMGWYRQAPGKERELVAAISRGGSTSYADSVKGRFTISRDNAKNTVYLQMNSLKPEDTAVYYCNASPWGPSYFRTPYYGVRRYNYWGQGTQVTVSS	high polyreactivity
QVQLVESGGGLVQAGGSLRLSCAASGSTFVRYAMGWYRQAPGKEWELVARISGRSGSTYYADSEKGRFTISRDNAKNTVYLQMNSLKPEDTAVYFCAARAWYRVYAYDVWGQGTQVTVSS	high polyreactivity
QVQLVESAGGLVQAGGSLRLSCAASGSIFNVYDMGWYRQAPGKERELVAAITWSGGRTYYADSVKGRFTISRDNAKNTVYLQMNSLKPEDTAVSSCSARRWWVKSWRRFDYWGQGTQVTVSS	high polyreactivity
QVQLVESGGGVVQAGGSLRLSCAASGITFNGNAMGWYRQAPGKERELVATISRSDGRTYYADSVKGRFTISRDNAKNTDYFQMNSLKPEDTAVYYCAAYTTRPYWGQGTQVTVSS	high polyreactivity
QVQLVESAGGLVQAGGSLSLICAASGSTFVVNALGWYRQAPGKERELVAAITTSGGSTYYADSVKGRFTISRDNAKNTVYLQMNSLKPEDTAVYYCAAETWGYYGYGVDYDYWGQGTQVTVSS	high polyreactivity
QVQLVESGGGLVQAGGSLRLSCAASGGTFHLNAMGWYRQAPRKEREFVASISWSGGSTYYADSVKGRFTISRDNAKNTVYLQMNCLKPEDTAVYYCARRKYYRQGGRTKGYDYWGQGTQVTVSS	high polyreactivity
QVQLVESGGRLVQAGGSLRLSCAASGIIFWVNAMGWYRQSTGKESELVAAISGRGGRTYYVDSVKGRFTISRDNAKNTVYLQMNSLKPEDTAVYYCNTVPYPAYLARMDYWGQGTQGTVSS	high polyreactivity
QVQLVESGGGLVQAGGSLRLSCAASGRILSLYAMGWNRQAPGKERELVASINWSDGSTYYADSVKGRFTISRDNAKNTVYLQMNSLKPEDTAVYYCTVDVRSYVAGYDYWGQGTQVTVSS	low polyreactivity
QVQLVESGGGLVQAGGSLRLSCAASGSTFAYYAMGWYRQAPGKERELVAAISWSGGSTYYADSVKGRFTISRDNAKNTVYLQMNSLKPEDTAVYYCNKRNVLDYDYWGQGTQVTVSS	low polyreactivity
QVQLQDSGGGLVQAGGSLRLICAASVTIFSYSDLGWYRQAPGKERKFVAGIGFGSNSNFADSVRGRFTISRDNAKNTVYLQMNSLKPEDTAVYYCAAVWFDYSTHRYWGQGTKVTVSS	high polyreactivity
QVQLVESGGGLVQAGGSLRLSCAASGRTFYRYAMGWYRQAPGNERELVAAISYSTTRTYYADSVKGRFTISRDNAKNTVYLQMNSLKPEDTAVYYCAAYGWTRFGYDYWGQGTQVTVSS	high polyreactivity
QVQLVESGGGLVQAGGSLRLTCAASGRTFFYNAMGWYRPAPGKERELVAAISWSGGRTYYADSVKGRFTISRDNAKNTVYLQMNSLKPEDTAVYYCASTGFYSSHYHLDYWGQGTQLTVSS	high polyreactivity
QVQLVESGGGLVQAGGSLRLSCAASGSTFDTYAMGWYRQAPGKERELVAAINSGGGTNYADSVKGRFTISRDNAKNTVYLQMNSLKPEDTAVYYCATDSRRDAGGGDFDYWGQGTQVTVSS	low polyreactivity
QVQLVDSGGGLVQAGGSLRLSCAASGFIFDVYAMGGYRQAPGKERQLVAAISVSSTNYADSVKGRFTISRDNAKNTVYLQMNSLKPEDTAVSYCAADTYTYFLASYLYGQYDYWGQGTQVTVSW	low polyreactivity
QVQLVESGGGLVQAGGRLRLSCAPSGTTFNPYTMGLYRQAPGKEGELVATITRIGGSTYYADSVKGRFTISRDNAKNTVYLQMNSLKPEDTAVYYCAADHYRSVRWRSNYTYRVNYWGQGTQVTVSS	high polyreactivity
QVQLVESGGGLVQAGGSLRLSCAASGFTFVSYAMGWYRQAPGKERELVAAISSRVGSTYYADSVKGRFTISRDNAKNTVYLQMNSLKPEDTAVYYCAASFTDRVTLDYFRSYAFEYWGQGTQVTVSS	low polyreactivity
QVQLVESGGGIVQAGGSLRLSCAASGSTFVTNVMGWYRQAPGKERELVAAISYSGGNTYYEDSVKGRFTISRDNANNTVYLHMNSLKPEDTAVYYCNAYRVVHPCEYDYWGQGTQVTVSS	high polyreactivity
QVQLVESGGGLVQAGGSLRLSCAASGRTFKDYVMGWYRQAPGKERELVAAITWRGGRTYYADSVKGRFTISRDNAKNTVYLQMNSLKPEDTAVYYCAAAEYFVSGGIMDYWGQGTQVTVSS	high polyreactivity
QVQLVESGGGLVQAGGTLRLSCAASGSTFGYYAMGWYRQAPGKERELVAAISWRGGSTYYADSVKGRFTISRYNANNTVYLQMNSLKPEDTAVYYCAAPVGNYGSFDYWGQGTKVTVSS	low polyreactivity
QVQLVESGGGLVQAGGSLRLSCAASGSIFTFYAMGWYRQAPGKERELVAAISKGGDRTYYADSVKGRFTISRDNAKNTVYLQMNSLIPEDTAVYYCARLVRPGRFGDGDYWGQGTQVTVSS	low polyreactivity
QVQLVESAGGLVQAGGSLRLSCAAYGSIIKRNAMGWYRQAPRKERQLVATSSSGDGSTRYADSVKWRFTISRDNAKNTVYLQMNSLKPEDTAVYYCALDFTYTYYRWKNPYRIGHDYWGHGTQVTVSS	low polyreactivity
